Drawing on article PMC12809092 (2025), this text covers koff for one molecule.

Experiment [1] has as its target T1, PLXNA1-LBD, recombinant human plexinA1 ligand-binding domains (human, UniProt Q9UIW2 27-710).
T1 chain: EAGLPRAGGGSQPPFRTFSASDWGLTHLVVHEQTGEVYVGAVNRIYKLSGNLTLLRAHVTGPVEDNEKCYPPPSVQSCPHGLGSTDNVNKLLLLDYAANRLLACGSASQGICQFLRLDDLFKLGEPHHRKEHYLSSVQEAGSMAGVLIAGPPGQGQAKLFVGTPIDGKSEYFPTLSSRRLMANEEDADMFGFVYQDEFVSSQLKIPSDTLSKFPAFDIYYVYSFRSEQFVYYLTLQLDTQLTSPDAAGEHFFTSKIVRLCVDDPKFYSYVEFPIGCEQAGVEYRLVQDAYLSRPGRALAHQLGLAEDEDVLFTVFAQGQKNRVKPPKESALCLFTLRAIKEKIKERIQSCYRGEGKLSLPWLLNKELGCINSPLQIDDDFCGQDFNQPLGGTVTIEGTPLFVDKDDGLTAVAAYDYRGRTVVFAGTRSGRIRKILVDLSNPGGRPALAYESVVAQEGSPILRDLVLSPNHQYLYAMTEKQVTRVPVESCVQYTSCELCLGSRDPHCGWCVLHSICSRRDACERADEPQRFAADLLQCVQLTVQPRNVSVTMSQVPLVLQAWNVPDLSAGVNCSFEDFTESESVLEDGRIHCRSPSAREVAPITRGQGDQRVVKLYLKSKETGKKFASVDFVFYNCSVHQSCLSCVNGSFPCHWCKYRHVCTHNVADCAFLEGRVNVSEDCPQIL
Nature of the experiment: BLI. A general note: Biolayer interferometry detects binding as a change in optical thickness at a sensor tip.

Experiment [2] has as its target PLXNA1-ECD, recombinant human plexinA1 full extracellular domains (human, UniProt Q9UIW2 27-1244). Nature of the experiment: BLI.

B1: aPLXNA1-19-43 Fab (Fab, V domains shown)
VH: EVQLQQSGPELVKPGASVKISCKASGYKFTENYMDWVKQSHGESLEWIGDISPDNGDTSYNQKFRDKATLTVDKSSSTAYMELRSLTSEDSAVYYCAQIIYYDYVGYALDYWGQGTSVTVSS
VL: QIVLTQSPAILSASPGEKVTMSCSVSSSITYMHWYQQKPGTSPKRWIYDTSKLASGVPARFSGSGSGTSFSLTISNMEAEDAATYYCHQRSSYPYSFGGGTKLEIK
One may read the koff as the first-order rate constant of dissociation. For the molecule B1, the koff in experiment [1] turned out to be 0.000252 s⁻¹; in experiment [2] it was 0.000111 s⁻¹.
